{"source": "paper PMC11589140", "about": "(2024)", "parents": {"B1": {"name": "HA-tagged RUNX1T1, wild type [human] / FLAG-tagged Sin3A [not stated] (parent complex)", "chain 1": "MISVKRNTWRALSLVIGDCRKKGNFEYCQDRTEKHSTMPDSPVDVKTQSRLTPPTMPPPPTTQGAPRTSSFTPTTLTNGTSHSPTALNGAPSPPNGFSNGPSSSSSSSLANQQLPPACGARQLSKLKRFLTTLQQFGNDISPEIGERVRTLVLGLVNSTLTIEEFHSKLQEATNFPLRPFVIPFLKANLPLLQRELLHCARLAKQNPAQYLAQHEQLLLDASTTSPVDSSELLLDVNENGKRRTPDRTKENGFDREPLHSEHPSKRPCTISPGQRYSPNNGLSYQPNGLPHPTPPPPQHYRLDDMAIAHHYRDSYRHPSHRDLRDRNRPMGLHGTRQEEMIDHRLTDREWAEEWKHLDHLLNCIMDMVEKTRRSLTVLRRCQEADREELNYWIRRYSDAEDLKKGGGSSSSHSRQQSPVNPDPVALDAHREFLHRPASGYVPEEIWKKAEEAVNEVKRQAMTELQKAVSEAERKAHDMITTERAKMERTVAEAKRQAAEDALAVINQQEDSSESCWNCGRKASETCSGCNTARYCGSFCQHKDWEKHHHICGQTLQAQQQGDTPAVSSSVTPNSGAGSPMDTPPAATPRSTTPGTPSTIETTPR", "chain 2": "MKRRLDDQESPVYAAQQRRIPGSTEAFPHQHRVLAPAPPVYEAVSETMQSATGIQYSVTPSYQVSAMPQSSGSHGPAIAAVHSSHHHPTAVQPHGGQVVQSHAHPAPPVAPVQGQQQFQRLKVEDALSYLDQVKLQFGSQPQVYNDFLDIMKEFKSQSIDTPGVISRVSQLFKGHPDLIMGFNTFLPPGYKIEVQTNDMVNVTTPGQVHQIPTHGIQPQPQPPPQHPSQPSAQSAPAPAQPAPQPPPAKVSKPSQLQAHTPASQQTPPLPPYASPRSPPVQPHTPVTISLGTAPSLQNNQPVEFNHAINYVNKIKNRFQGQPDIYKAFLEILHTYQKEQRNAKEAGGNYTPALTEQEVYAQVARLFKNQEDLLSEFGQFLPDANSSVLLSKTTAEKVDSVRNDHGGTVKKPQLNNKPQRPSQNGCQIRRHPTGTTPPVKKKPKLLNLKDSSMADASKHGGGTESLFFDKVRKALRSAEAYENFLRCLVIFNQEVISRAELVQLVSPFLGKFPELFNWFKNFLGYKESVHLETYPKERATEGIAMEIDYASCKRLGSSYRALPKSYQQPKCTGRTPLCKEVLNDTWVSFPSWSEDSTFVSSKKTQYEEHIYRCEDERFELDVVLETNLATIRVLEAIQKKLSRLSAEEQAKFRLDNTLGGTSEVIHRKALQRIYADKAADIIDGLRKNPSIAVPIVLKRLKMKEEEWREAQRGFNKVWREQNEKYYLKSLDHQGINFKQNDTKVLRSKSLLNEIESIYDERQEQATEENAGVPVGPHLSLAYEDKQILEDAAALIIHHVKRQTGIQKEDKYKIKQIMHHFIPDLLFAQRGDLSDVEEEEEEEMDVDEATGAVKKHNGVGGSPPKSKLLFSNTAAQKLRGMDEVYNLFYVNNNWYIFMRLHQILCLRLLRICSQAERQIEEENREREWEREVLGIKRDKSDSPAIQLRLKEPMDVDVEDYYPAFLDMVRSLLDGNIDSSQYEDSLREMFTIHAYIAFTMDKLIQSIVRQLQHIVSDEICVQVTDLYLAENNNGATGGQLNTQNSRSLLESTYQRKAEQLMSDENCFKLMFIQSQGQVQLTIELLDTEEENSDDPVEAERWSDYVERYMNSDTTSPELREHLAQKPVFLPRNLRRIRKCQRGREQQEKEGKEGNSKKTMENVDSLDKLECRFKLNSYKMVYVIKSEDYMYRRTALLRAHQSHERVSKRLHQRFQAWVDKWTKEHVPREMAAETSKWLMGEGLEGLVPCTTTCDTETLHFVSINKYRVKYGTVFKAP"}, "B2": {"name": "HA-tagged RUNX1T1, wild type [human] / FLAG-tagged GFI-1 [not stated] (parent complex)", "chain 1": "B1 chain 1", "chain 2": "not shown"}}, "data": [{"variants_of": "B1", "assay": "co-immunoprecipitation (IP: HA) with densitometry quantification; HA-tagged RUNX1T1 and FLAG-tagged interactor co-expressed in HEK-293 cells; parent: 1; read off a plot", "values": [{"variant": "chain 1 E163K", "ratio to parent": "~0.57"}, {"variant": "chain 1 E146K", "ratio to parent": "~2.6"}]}, {"variants_of": "B2", "assay": "co-immunoprecipitation (IP: HA) with densitometry quantification; HA-tagged RUNX1T1 and FLAG-tagged interactor co-expressed in HEK-293 cells; parent: 1; read off a plot", "values": [{"variant": "chain 1 E146K", "ratio to parent": "~1.6"}, {"variant": "chain 1 E163K", "ratio to parent": "~1.6"}]}]}
